Data reported in the supplement of paper PMC9233669.
Fewer inactive variants are shown than the library holds.

How the values were obtained:
biotinyl-Trp-oxazolone = test: self-aminoacylation, catalytic enhancement (BWO) (fold over background); higher = more active; k-Seq, kA / k0A0; sequences stand for … in GGGAAUGGAUCCACAUCUACGAAUUC…UUCACUGCAGACUUGACGAAGCUG
Procedure, shortened: (§1)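 Mutagenized RNA pools with a 21-nt variable region (0.43 μM) reacted with each biotinyl-aminoacyl-oxazolone at 2–1250 μM. Reactions ran in 50 μL HEPES/NaCl/KCl/MgCl2/CaCl2 buffer with 5% acetonitrile, pH 6.9–7.0, for 90 minutes at room temperature. Streptavidin-captured RNA was quantified by triplicate qPCR and Illumina sequencing, and per-sequence fraction reacted was fit to a pseudo-first-order model with 1000 bootstraps. Catalytic enhancement is median kA divided by the uncatalyzed rate, the low-activity peak of a bimodal Gaussian fit.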

biotinyl-Val-oxazolone = test: self-aminoacylation, catalytic enhancement (BVO) (fold over background); higher = more active; k-Seq, kA / k0A0; sequences stand for … in GGGAAUGGAUCCACAUCUACGAAUUC…UUCACUGCAGACUUGACGAAGCUG
Procedure, shortened: as §1

biotinyl-Met-oxazolone = test: self-aminoacylation, catalytic enhancement (BMO) (fold over background); higher = more active; k-Seq, kA / k0A0; sequences stand for … in GGGAAUGGAUCCACAUCUACGAAUUC…UUCACUGCAGACUUGACGAAGCUG
Procedure, shortened: as §1

biotinyl-Leu-oxazolone = test: self-aminoacylation, catalytic enhancement (BLO) (fold over background); higher = more active; k-Seq, kA / k0A0; sequences stand for … in GGGAAUGGAUCCACAUCUACGAAUUC…UUCACUGCAGACUUGACGAAGCUG
Procedure, shortened: as §1

biotinyl-Phe-oxazolone = test: self-aminoacylation, catalytic enhancement (BFO) (fold over background); higher = more active; k-Seq, kA / k0A0; sequences stand for … in GGGAAUGGAUCCACAUCUACGAAUUC…UUCACUGCAGACUUGACGAAGCUG
Procedure, shortened: as §1

biotinyl-Ile-oxazolone = test: self-aminoacylation, catalytic enhancement (BIO) (fold over background); higher = more active; k-Seq, kA / k0A0; sequences stand for … in GGGAAUGGAUCCACAUCUACGAAUUC…UUCACUGCAGACUUGACGAAGCUG
Procedure, shortened: as §1

Sequence | self-aminoacylation (biotinyl-Trp-oxazolone) | self-aminoacylation (biotinyl-Val-oxazolone) | self-aminoacylation (biotinyl-Met-oxazolone) | self-aminoacylation (biotinyl-Leu-oxazolone) | self-aminoacylation (biotinyl-Phe-oxazolone) | self-aminoacylation (biotinyl-Ile-oxazolone)
AUUCACCUAGGUCACCCGGUG [Fam2.2 aminoacylation ribozyme variant] | 5.82 | 7.55 | 7.32 | 9.93 | 37.3 | 9.3
CAACACUACAAGCAAUCGGUC [Fam1B.1 aminoacylation ribozyme variant] | 0.713 | 1.01 | 0.956 | 0.914 | 0.958 | 0.955
AUUCAUCUAGGCCAUCGGGUG [Fam2.2 aminoacylation ribozyme variant] | 3 | 2.84 | 3.38 | 5.22 | 19 | 2.39
CCACACUUCAGGCAAUCGGUA [Fam1B.1 aminoacylation ribozyme variant] | 1.04 | 1.33 | 1.43 | 1.23 | 1.97 | 1.24
AUUCGCCUAGGUCGUCGGGUG [Fam2.2 aminoacylation ribozyme variant] | 1.51 | 2.22 | 2.28 | 2.18 | 11.6 | 1.56
CUACUUCAAAAAAUCCGUCUG [Fam1A.1 aminoacylation ribozyme variant] | 0.897 | 0.945 | 0.854 | 0.682 | 1.02 | 0.834
AUUCCCCAGGUCAUCGAGUGA [Fam2.1 aminoacylation ribozyme variant] | 6.65 | 3.75 | 4.86 | 4.83 | 21.1 | 3.12
AUACACCUAGGUCAUCUGGUG [Fam2.2 aminoacylation ribozyme variant] | 1.41 | 1.23 | 1.56 | 1.68 | 4.68 | 1.4
CUACUUCAAAUCAUCGGUCUG [Fam1A.1 aminoacylation ribozyme variant] | 0.65 | 0.855 | 0.83 | 0.917 | 0.771 | 0.876
AAAUUUGCUAAUAGUCGCAAC [Fam3.1 aminoacylation ribozyme variant] | 1.52 | 1.51 | 1.31 | 1.91 | 1.64 | 1.88
ACACACUUCAAGCAAUCGGUG [Fam1B.1 aminoacylation ribozyme variant] | 9.81 | 5.84 | 7.83 | 10.5 | 56.7 | 5.89
AUUACCCUGGGCGUCGAGUGA [Fam2.1 aminoacylation ribozyme variant] | 1.04 | 1.44 | 1.73 | 1.3 | 1.06 | 1.04
AUUCAUCUAGGUCAUAGGGUG [Fam2.2 aminoacylation ribozyme variant] | 2.83 | 1.87 | 2.63 | 3.39 | 10.1 | 2
AUUCACCUGGGUCAACGGGUG [Fam2.2 aminoacylation ribozyme variant] | 3.21 | 2.56 | 3.9 | 4.25 | 22.8 | 2.41
GCACACUUCAAGCAAUCGGUU [Fam1B.1 aminoacylation ribozyme variant] | 6.83 | 2.86 | 2.66 | 3.33 | 4.75 | 3.38
CUUCUUCAAACAACCGGUCUG [Fam1A.1 aminoacylation ribozyme variant] | 0.846 | 0.949 | 0.98 | 0.961 | 0.852 | 1.11
AAGUUUGCUAAUAGUAGCAAU [Fam3.1 aminoacylation ribozyme variant] | 1.78 | 1.32 | 1.57 | 1.11 | 1.15 | 1.32
CUACUUCAGUCAAUCGGUCUG [Fam1A.1 aminoacylation ribozyme variant] | 0.463 | 0.807 | 0.848 | 0.667 | 0.793 | 0.565
AAGUUUGCUAAUAAUCGCAAC [Fam3.1 aminoacylation ribozyme variant] | 1.18 | 0.975 | 1.06 | 0.773 | 0.842 | 0.8
CUACUUCAAACAGUCGGUAUG [Fam1A.1 aminoacylation ribozyme variant] | 0.554 | 0.552 | 0.587 | 0.532 | 0.447 | 0.6
CCAUACUUCAAGCAAUAGGUC [Fam1B.1 aminoacylation ribozyme variant] | 0.513 | 0.633 | 0.505 | 0.597 | 1.03 | 0.72
CUACUUCAAACAAUCGGUCAU [Fam1A.1 aminoacylation ribozyme variant] | 1.88 | 1.01 | 0.666 | 0.892 | 4.39 | 0.892
CCACACAUCAAGAAAUCGGUC [Fam1B.1 aminoacylation ribozyme variant] | 0.645 | 0.776 | 0.61 | 0.792 | 1.2 | 0.732
CCACACUUCAAACAAUCGGCC [Fam1B.1 aminoacylation ribozyme variant] | 7.9 | 2.19 | 1.96 | 1.61 | 8.32 | 1.77
CUUCACCUAAGUCAUCGGGUG [Fam2.2 aminoacylation ribozyme variant] | 5.5 | 5.22 | 6.58 | 8.79 | 42.2 | 4.46
AAGUUUGUUAAUAGGCGCAAG [Fam3.1 aminoacylation ribozyme variant] | 0.763 | 0.652 | 0.799 | 0.556 | 1.05 | 0.767
